Measurements: publication PMC7405809

Columns and labels:
[1] = target: BFL-1ΔC C4S/C19S conjugated to 4E14 at C55 (UniProt Q16548); assay: fluorescence polarisation
His6-BFL-1ΔC C4S/C19S = His6-BFL-1ΔC C4S/C19S (UniProt Q16548); assay: fluorescence polarisation

EC50 [1]: 1300 nM | EC50 (His6-BFL-1ΔC C4S/C19S): 23 nM
Substance: FITC-BID BH3 peptide
